No end group written: not given here.
Each binder was assayed against human GLP-1 receptor (human, UniProt P43220) (assay: cell-based or functional assay).

Binder	GLP-1 Receptor Activation (relative to GLP-1(7-37)OH) [relative potency]
HVEGTFTSDVSSYKEGQAAKEFIAWLVKGRG [Val^8-Lys^20-GLP-1(7-37)OH]	0.33
HAEGTFTSDVSSYLEQQAAKEFIAWLVKGRG [Gln^22-GLP-1(7-37)OH]	0.42
HVEGTFTSDVSSYLEAQAAKEFIAWLVKGRG [Val^8-Ala^22-GLP-1(7-37)OH]	0.56
HVEGTFTSDVSSYLESQAAKEFIAWLVKGRG [Val^8-Ser^22-GLP-1(7-37)OH]	0.5
HVEGTFTSDVSSYLEDQAAKEFIAWLVKGRG [Val^8-Asp^22-GLP-1(7-37)OH]	0.4
HVEGTFTSDVSSYLEEQAAKEFIAWLVKGRG [Val^8-Glu^22-GLP-1(7-37)OH]	1.29
HVEGTFTSDVSSYLEKQAAKEFIAWLVKGRG [Val^8-Lys^22-GLP-1(7-37)OH]	0.58
HVEGTFTSDVSSYLEPQAAKEFIAWLVKGRG [Val^8-Pro^22-GLP-1(7-37)OH]	0.01
HVEGTFTSDVSSYLEHQAAKEFIAWLVKGRG [Val^8-His^22-GLP-1(7-37)OH]	0.14
HVEGTFTSDVSSYLEKQAAKEFIAWLVKGR-NH2 [Val^8-Lys^22-GLP-1(7-36)NH2]	0.53
HVEGTFTSDVSSYLEEQAAKEFIAWLVKGR-NH2 [Val^8-Glu^22-GLP-1(7-36)NH2]	1
HVEGTFTSDVSSYLEGKAAKEFIAWLVKGRG [Val^8-Lys^23-GLP-1(7-37)OH]	0.18
HVEGTFTSDVSSYLEGQHAKEFIAWLVKGRG [Val^8-His^24-GLP-1(7-37)OH]	0.007
HVEGTFTSDVSSYLEGQKAKEFIAWLVKGRG [Val^8-Lys^24-GLP-1(7-37)OH]	0.02
HVEGTFTSDVSSYLEGQAAHEFIAWLVKGRG [Val^8-His^26-GLP-1(7-37)OH]	1.6
HVEGTFTSDVSSYLEGQAAEEFIAWLVKGRG [Val^8-Glu^26-GLP-1(7-37)OH]	1.5
HVEGTFTSDVSSYLEGQAAKHFIAWLVKGRG [Val^8-His^27-GLP-1(7-37)OH]	0.37
HGEGTFTSDVSSYLEGQAAKEFIEWLVKGRG [Gly^8-Glu^30-GLP-1(7-37)OH]	0.29
HVEGTFTSDVSSYLEGQAAKEFIEWLVKGRG [Val^8-Glu^30-GLP-1(7-37)OH]	0.29
HVEGTFTSDVSSYLEGQAAKEFIDWLVKGRG [Val^8-Asp^30-GLP-1(7-37)OH]	0.15
HVEGTFTSDVSSYLEGQAAKEFISWLVKGRG [Val^8-Ser^30-GLP-1(7-37)OH]	0.19
HVEGTFTSDVSSYLEGQAAKEFIHWLVKGRG [Val^8-His^30-GLP-1(7-37)OH]	0.19

— patent publication US20040235710A1, “Pre-mixes of glp-1 and basal insulin” (published 2004)
